According to article PMC8222801:

Molecular target: CmMYB6_N3 (Chrysanthemum morifolium)
Sequence (main, as listed by the source): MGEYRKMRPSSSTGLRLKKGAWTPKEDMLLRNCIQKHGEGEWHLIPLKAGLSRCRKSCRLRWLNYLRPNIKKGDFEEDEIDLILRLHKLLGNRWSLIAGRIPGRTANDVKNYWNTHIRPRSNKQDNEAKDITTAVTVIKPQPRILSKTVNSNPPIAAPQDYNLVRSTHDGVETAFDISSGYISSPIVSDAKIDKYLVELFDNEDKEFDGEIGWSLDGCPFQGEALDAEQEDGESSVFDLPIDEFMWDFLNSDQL

## CmbHLH2^Full_L (from UniProt A0A0S3J3I7 1-613) (natural protein)
  GUS activity driven by the CmCHS promoter in tobacco leaves co-infiltrated with CmbHLH2^Full and full-length CmMYB6 (untagged effectors): 5 fold
  GUS activity driven by the CmDFR promoter in tobacco leaves co-infiltrated with CmbHLH2^Full and full-length CmMYB6 (untagged effectors): 26 fold
